The supplement of paper PMC10065799, “High-throughput profiling of sequence recognition by tyrosine kinases and SH2 domains using bacterial peptide display” (eLife, 2023)

Tests used:
Fer (mouse) = experiment: phosphorylation enrichment, bacterial display (enrichment ratio); higher = better substrate or ligand; peptides without Tyr show the background
Fyn = Fyn (UniProt P06241); experiment: as above
AncSZ = experiment: as above
EPHB2 = EPHB2 (UniProt P29323); experiment: as above
Fes = Fes (UniProt P07332); experiment: as above
c-Abl (mouse) = experiment: as above
FGFR3 = FGFR3 (UniProt P22607); experiment: as above
Jak2 = Jak2 (UniProt O60674); experiment: as above
FGFR1 = FGFR1 (UniProt P11362); experiment: as above
EPHB1 = EPHB1 (UniProt P54762); experiment: as above
Hck = Hck (UniProt P08631); experiment: as above
c-Src = experiment: as above
MERTK = MERTK (UniProt Q12866); experiment: as above
c-Src SH2 = experiment: SH2 binding enrichment of the phosphorylated peptide, bacterial display (enrichment ratio); higher = better substrate or ligand; peptides without Tyr show the background
SHP2-C SH2 = experiment: as above
Grb2 SH2 = Grb2 SH2 (UniProt P62993); experiment: as above
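Wherever SH2 binding enrichment of the phosphorylated peptide, bacterial display is given: peptide library displayed on the E. coli surface as eCPX fusions, selected cells deep-sequenced, score is each peptide's frequency after selection divided by its frequency in the input.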
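Wherever phosphorylation enrichment, bacterial display is given: 11-residue human phosphosite peptides and single-mutation variants displayed on the E. coli surface, counted by deep sequencing, each peptide's frequency after selection divided by its frequency in the unselected input library; frequency after pTyr selection over input frequency; kinase dosed for 20-30% of maximal phosphorylation in three min.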

Sequence of EPHB2 (P29323 whole entry, looked up): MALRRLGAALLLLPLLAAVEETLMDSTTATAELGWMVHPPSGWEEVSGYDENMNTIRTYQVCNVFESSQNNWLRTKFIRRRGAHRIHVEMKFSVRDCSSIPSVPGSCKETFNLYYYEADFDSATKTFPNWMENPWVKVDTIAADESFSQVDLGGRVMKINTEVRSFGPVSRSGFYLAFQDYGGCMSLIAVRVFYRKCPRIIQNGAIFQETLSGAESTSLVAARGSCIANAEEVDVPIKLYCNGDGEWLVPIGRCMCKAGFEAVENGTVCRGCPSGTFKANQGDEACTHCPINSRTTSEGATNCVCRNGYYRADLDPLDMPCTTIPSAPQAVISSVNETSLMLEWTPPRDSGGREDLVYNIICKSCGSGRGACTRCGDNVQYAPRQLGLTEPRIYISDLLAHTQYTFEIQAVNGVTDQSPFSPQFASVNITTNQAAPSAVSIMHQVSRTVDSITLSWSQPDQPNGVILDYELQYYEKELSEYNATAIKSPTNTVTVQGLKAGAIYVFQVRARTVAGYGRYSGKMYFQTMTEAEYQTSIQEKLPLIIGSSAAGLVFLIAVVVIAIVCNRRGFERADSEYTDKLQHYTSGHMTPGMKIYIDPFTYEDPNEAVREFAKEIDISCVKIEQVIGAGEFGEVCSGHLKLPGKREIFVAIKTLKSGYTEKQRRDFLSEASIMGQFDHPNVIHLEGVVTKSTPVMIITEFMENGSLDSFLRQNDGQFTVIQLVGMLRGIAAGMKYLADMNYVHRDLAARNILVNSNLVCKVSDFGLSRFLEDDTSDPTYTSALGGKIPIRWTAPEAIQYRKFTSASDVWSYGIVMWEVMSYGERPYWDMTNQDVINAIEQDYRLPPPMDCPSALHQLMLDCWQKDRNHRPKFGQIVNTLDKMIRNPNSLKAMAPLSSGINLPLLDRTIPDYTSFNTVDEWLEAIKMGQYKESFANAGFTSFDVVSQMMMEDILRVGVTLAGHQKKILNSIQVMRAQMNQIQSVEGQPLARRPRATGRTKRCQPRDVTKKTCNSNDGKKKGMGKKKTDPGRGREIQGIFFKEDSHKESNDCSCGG
Sequence of EPHB1 (P54762 whole entry, looked up): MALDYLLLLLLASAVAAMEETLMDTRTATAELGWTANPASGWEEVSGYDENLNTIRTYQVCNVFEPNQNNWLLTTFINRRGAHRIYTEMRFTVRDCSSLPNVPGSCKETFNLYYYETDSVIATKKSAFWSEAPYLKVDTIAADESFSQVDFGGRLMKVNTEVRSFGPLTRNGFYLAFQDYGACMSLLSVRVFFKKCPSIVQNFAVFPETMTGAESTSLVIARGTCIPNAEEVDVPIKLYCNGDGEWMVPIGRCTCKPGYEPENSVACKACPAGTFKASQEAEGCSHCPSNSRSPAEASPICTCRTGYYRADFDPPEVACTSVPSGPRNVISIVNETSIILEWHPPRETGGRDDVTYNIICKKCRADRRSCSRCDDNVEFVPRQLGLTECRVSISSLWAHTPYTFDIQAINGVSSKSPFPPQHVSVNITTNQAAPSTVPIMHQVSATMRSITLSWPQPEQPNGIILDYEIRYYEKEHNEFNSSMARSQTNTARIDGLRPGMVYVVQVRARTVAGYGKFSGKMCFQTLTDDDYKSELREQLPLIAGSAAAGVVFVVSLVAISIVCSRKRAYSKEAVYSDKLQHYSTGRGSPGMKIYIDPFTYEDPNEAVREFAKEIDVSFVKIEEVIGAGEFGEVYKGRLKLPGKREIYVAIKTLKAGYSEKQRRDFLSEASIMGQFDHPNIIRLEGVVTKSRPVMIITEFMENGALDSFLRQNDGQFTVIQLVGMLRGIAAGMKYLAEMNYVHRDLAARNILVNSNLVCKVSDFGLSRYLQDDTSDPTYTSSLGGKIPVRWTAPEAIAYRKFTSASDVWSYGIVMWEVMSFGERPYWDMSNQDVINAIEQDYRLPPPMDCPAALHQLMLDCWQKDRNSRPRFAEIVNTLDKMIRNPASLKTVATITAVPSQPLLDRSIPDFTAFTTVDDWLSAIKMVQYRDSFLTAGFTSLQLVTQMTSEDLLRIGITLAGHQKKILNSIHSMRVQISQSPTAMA
Sequence of FGFR3 (P22607 whole entry, looked up): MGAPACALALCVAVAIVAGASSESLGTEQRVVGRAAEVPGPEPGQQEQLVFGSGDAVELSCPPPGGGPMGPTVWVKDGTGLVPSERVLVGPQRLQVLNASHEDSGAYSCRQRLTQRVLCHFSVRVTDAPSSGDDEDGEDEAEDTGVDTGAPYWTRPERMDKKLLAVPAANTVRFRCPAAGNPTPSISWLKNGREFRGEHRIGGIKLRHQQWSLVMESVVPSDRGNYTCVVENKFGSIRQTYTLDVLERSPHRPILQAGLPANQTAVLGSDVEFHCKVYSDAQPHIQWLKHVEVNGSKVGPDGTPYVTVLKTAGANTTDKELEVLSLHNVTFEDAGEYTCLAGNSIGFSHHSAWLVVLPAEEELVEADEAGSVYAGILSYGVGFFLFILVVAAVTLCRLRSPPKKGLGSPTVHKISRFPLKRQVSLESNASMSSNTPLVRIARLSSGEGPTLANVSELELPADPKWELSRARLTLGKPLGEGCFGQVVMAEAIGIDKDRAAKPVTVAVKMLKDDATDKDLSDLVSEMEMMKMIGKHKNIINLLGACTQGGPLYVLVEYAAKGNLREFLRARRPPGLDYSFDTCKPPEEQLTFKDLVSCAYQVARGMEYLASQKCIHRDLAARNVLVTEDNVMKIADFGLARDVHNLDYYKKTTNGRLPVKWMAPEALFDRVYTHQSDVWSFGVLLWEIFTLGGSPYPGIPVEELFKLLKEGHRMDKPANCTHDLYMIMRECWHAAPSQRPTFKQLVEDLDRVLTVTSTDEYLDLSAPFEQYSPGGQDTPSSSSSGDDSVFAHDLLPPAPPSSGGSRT
Sequence of Fes (P07332 whole entry, looked up): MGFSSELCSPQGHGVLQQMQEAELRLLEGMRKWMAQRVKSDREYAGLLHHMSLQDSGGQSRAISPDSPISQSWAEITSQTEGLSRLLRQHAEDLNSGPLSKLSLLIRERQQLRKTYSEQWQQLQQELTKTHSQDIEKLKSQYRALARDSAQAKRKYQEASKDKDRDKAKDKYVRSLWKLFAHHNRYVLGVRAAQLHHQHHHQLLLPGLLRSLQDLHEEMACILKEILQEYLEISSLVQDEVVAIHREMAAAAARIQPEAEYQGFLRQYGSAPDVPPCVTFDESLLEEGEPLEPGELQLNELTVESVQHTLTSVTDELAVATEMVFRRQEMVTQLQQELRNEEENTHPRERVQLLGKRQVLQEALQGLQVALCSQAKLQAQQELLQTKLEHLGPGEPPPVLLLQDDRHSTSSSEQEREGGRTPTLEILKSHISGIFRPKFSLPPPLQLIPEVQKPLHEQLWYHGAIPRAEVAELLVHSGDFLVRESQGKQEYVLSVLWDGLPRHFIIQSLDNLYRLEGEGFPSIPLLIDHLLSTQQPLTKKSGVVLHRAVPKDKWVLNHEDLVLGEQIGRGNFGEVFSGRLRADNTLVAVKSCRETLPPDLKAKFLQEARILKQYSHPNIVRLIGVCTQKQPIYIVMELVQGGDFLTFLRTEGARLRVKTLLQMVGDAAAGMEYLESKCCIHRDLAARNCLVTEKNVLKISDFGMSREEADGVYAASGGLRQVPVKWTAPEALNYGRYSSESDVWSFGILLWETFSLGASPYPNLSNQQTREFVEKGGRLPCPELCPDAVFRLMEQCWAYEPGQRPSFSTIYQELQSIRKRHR
Sequence of Fyn (P06241 whole entry, looked up): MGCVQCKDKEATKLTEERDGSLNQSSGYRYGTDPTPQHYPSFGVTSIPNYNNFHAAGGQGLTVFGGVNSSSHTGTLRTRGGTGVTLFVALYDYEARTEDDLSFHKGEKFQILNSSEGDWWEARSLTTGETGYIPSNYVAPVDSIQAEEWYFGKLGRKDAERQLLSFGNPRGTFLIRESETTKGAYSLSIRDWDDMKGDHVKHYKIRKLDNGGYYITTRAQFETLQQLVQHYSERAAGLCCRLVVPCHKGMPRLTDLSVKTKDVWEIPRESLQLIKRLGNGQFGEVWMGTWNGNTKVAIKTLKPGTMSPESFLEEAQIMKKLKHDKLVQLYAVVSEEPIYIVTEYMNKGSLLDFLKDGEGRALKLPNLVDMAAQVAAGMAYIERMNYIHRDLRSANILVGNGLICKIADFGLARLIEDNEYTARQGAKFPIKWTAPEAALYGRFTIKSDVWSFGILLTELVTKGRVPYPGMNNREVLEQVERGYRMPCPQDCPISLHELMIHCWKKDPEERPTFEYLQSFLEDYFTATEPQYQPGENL
Sequence of Grb2 SH2 (P62993 whole entry, looked up, the tested form may be a part): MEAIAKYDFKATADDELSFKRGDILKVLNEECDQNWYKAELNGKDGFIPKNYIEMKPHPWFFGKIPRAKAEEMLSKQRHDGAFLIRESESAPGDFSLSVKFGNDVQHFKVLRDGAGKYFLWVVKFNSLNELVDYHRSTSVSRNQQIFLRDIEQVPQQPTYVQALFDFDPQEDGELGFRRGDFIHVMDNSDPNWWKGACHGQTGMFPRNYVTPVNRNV
Sequence of Hck (P08631 whole entry, looked up): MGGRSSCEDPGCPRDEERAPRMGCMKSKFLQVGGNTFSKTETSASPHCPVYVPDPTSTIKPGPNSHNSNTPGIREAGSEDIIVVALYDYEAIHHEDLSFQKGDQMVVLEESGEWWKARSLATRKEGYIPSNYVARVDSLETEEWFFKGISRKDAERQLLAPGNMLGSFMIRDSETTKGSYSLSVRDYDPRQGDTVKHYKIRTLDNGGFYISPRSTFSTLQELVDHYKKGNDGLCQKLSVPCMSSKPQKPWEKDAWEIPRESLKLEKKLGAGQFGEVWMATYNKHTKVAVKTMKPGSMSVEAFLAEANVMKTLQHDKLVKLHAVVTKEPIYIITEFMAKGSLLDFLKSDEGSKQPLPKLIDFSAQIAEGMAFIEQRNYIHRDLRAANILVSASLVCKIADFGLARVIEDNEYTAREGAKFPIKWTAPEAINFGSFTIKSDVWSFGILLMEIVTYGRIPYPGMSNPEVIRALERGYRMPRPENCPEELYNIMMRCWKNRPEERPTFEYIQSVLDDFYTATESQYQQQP

Row | Sequence | phosphorylation enrichment (Fer (mouse)) | phosphorylation enrichment (Fyn) | phosphorylation enrichment (AncSZ) | phosphorylation enrichment (EPHB2) | phosphorylation enrichment (Fes) | phosphorylation enrichment (c-Abl (mouse)) | phosphorylation enrichment (FGFR3) | phosphorylation enrichment (Jak2) | phosphorylation enrichment (FGFR1) | phosphorylation enrichment (EPHB1) | phosphorylation enrichment (Hck) | phosphorylation enrichment (c-Src) | phosphorylation enrichment (MERTK) | SH2 binding enrichment (c-Src SH2) | SH2 binding enrichment (SHP2-C SH2) | SH2 binding enrichment (Grb2 SH2)
1 | ARVDTYCRHNY [HLA-DRB1_Y107_A103R] | 0.812 | 0.552 | 0.825 | 0.583 | 1.09 | 0.797 | 0.698 | 0.798 | 0.582 | 0.6 | 0.502 | 0.468 | 0.538 | 0.752 | 0.755 | 1.09
2 | ASFGPNTRVQS [FOXL2_Y258_Y258N_YF] | 0.447 | 0.466 | 0.567 | 0.399 | 0.619 | 0.525 | 0.442 | 0.565 | 0.479 | 0.445 | 0.433 | 0.394 | 0.365 | 0.542 | 0.267 | 0.8
3 | ATARPYRPFII [LRP5_Y1528_YF] | 0.406 | 0.359 | 0.465 | 0.469 | 0.61 | 1.05 | 0.566 | 0.589 | 0.402 | 0.356 | 0.405 | 0.389 | 0.469 | 0.861 | 0.625 | 1.11
4 | ATHSRYRLNDY [CLDN14_Y233_G232R] | 0.37 | 0.442 | 0.562 | 0.371 | 0.735 | 0.476 | 0.468 | 0.406 | 0.387 | 0.484 | 0.505 | 0.417 | 0.459 | 0.682 | 0.563 | 0.744
5 | ATVRPYRPFII [LRP5_Y1528_A1525V_YF] | 0.406 | 0.397 | 0.653 | 0.336 | 0.61 | 0.505 | 0.459 | 0.644 | 0.418 | 0.438 | 0.462 | 0.493 | 0.395 | 0.616 | 0.79 | 0.953
6 | AVDDKYSRREE [SART1_Y685_I681V] | 0.458 | 0.567 | 0.887 | 0.516 | 0.977 | 0.478 | 0.581 | 0.679 | 0.457 | 0.453 | 0.533 | 0.427 | 0.426 | 0.586 | 0.925 | 1.02
7 | AVLALHNSTRD [TGFB1_Y81_Y81H] | 0.38 | 0.423 | 0.546 | 0.323 | 0.647 | 0.494 | 0.387 | 0.519 | 0.346 | 0.354 | 0.359 | 0.322 | 0.398 | 0.517 | 0.588 | 0.752
8 | AVLQLYIFVAT [CFTR_Y1014_P1013L] | 0.573 | 0.516 | 1.3 | 0.599 | 1.37 | 0.837 | 1.09 | 1.24 | 0.462 | 0.766 | 0.562 | 0.567 | 0.498 | 0.439 | 0.701 | 1
9 | CDKEYYSVHNK [MET_Y1235_Y1230C] | 0.601 | 0.608 | 2.06 | 0.69 | 1.2 | 0.949 | 2.09 | 1.32 | 2.49 | 0.734 | 0.788 | 0.761 | 0.573 | 0.51 | 0.553 | 0.655
10 | CEHRGFLFLAI [TEK_Y897_Y897F_YF] | 0.515 | 0.403 | 0.949 | 0.513 | 1.16 | 0.907 | 0.651 | 1.06 | 0.484 | 0.392 | 0.434 | 0.506 | 0.442 | 0.759 | 0.996 | 1.47
11 | CENNRYGMGAS [PDHA1_Y227_T231A] | 0.365 | 0.405 | 0.655 | 0.421 | 0.754 | 0.594 | 0.476 | 0.629 | 0.413 | 0.403 | 0.392 | 0.349 | 0.324 | 0.457 | 0.723 | 0.849
12 | CITIHYNYMCN [TP53_Y234_T230I] | 0.569 | 0.423 | 0.923 | 0.515 | 1.01 | 0.582 | 0.662 | 0.881 | 0.474 | 0.605 | 0.44 | 0.381 | 0.389 | 1.57 | 1.44 | 1.56
13 | CNPRRYPVLMS [OR2T1_Y182_L180R] | 0.358 | 0.501 | 0.625 | 0.496 | 0.833 | 0.59 | 0.485 | 0.822 | 0.384 | 0.49 | 0.373 | 0.494 | 0.411 | 1.18 | 0.954 | 1.1
14 | CPFNLYAEQLS [HGD_Y40_YF] | 0.636 | 0.642 | 1.15 | 0.816 | 1.37 | 0.77 | 0.698 | 0.935 | 0.577 | 1.16 | 0.772 | 0.696 | 0.769 | 0.645 | 0.708 | 0.892
15 | CPPKVYELMIA [ABL2_Y515_R519I] | 7.5 | 0.916 | 1.24 | 2.25 | 1.34 | 0.766 | 0.959 | 1.2 | 1.34 | 7.46 | 1.03 | 1.99 | 5.18 | 1.44 | 0.658 | 0.817
16 | CSTIHYNYMCN [TP53_Y234_T230S] | 0.555 | 0.461 | 0.784 | 0.542 | 0.758 | 0.411 | 0.585 | 0.656 | 0.545 | 0.586 | 0.399 | 0.435 | 0.375 | 6.46 | 3.83 | 1.11
